Assay results taken from publication PMC8906542.

Columns and labels:
Experiment in all cases: fluorescence polarization
ErmE E160W = molecular target: T1, ErmE E160W (Saccharopolyspora erythraea, UniProt P07287 1-381, E160W)
T1 sequence: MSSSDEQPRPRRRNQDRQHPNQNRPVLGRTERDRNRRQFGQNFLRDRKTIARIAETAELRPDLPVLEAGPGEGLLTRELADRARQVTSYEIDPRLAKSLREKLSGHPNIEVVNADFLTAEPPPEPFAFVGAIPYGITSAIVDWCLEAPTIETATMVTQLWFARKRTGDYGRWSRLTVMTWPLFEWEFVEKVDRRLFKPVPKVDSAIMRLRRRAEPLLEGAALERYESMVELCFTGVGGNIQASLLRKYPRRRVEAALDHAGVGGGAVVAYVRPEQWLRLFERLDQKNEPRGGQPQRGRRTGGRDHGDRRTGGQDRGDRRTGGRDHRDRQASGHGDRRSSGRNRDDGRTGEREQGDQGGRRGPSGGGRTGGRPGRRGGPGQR

ErmE E160A = molecular target: T2, ErmE E160A (Saccharopolyspora erythraea, UniProt P07287 1-381, E160A)
T2 sequence: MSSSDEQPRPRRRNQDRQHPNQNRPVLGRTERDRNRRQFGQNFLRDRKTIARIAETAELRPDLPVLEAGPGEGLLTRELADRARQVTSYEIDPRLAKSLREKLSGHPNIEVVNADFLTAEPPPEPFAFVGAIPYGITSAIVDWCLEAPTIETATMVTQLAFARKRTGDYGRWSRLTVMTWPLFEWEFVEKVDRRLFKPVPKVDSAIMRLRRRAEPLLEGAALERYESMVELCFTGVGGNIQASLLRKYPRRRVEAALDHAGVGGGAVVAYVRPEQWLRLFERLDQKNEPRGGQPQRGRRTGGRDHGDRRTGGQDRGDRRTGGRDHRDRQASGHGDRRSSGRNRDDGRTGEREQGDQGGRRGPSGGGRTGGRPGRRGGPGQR

ErmE R163E = molecular target: T3, ErmE R163E (Saccharopolyspora erythraea, UniProt P07287 1-381, R163E)
T3 sequence: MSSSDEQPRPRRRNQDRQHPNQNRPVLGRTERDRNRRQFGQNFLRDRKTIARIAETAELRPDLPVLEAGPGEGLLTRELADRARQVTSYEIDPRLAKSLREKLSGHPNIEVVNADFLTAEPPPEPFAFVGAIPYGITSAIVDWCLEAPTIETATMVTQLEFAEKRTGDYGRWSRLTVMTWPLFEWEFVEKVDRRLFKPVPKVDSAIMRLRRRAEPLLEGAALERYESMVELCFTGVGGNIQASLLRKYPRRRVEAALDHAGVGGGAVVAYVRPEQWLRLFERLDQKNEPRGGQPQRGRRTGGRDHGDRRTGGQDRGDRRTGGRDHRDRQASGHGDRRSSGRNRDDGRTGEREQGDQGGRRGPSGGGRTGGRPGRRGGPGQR

ErmE R165A = molecular target: T4, ErmE R165A (Saccharopolyspora erythraea, UniProt P07287 1-381, R165A)
T4 sequence: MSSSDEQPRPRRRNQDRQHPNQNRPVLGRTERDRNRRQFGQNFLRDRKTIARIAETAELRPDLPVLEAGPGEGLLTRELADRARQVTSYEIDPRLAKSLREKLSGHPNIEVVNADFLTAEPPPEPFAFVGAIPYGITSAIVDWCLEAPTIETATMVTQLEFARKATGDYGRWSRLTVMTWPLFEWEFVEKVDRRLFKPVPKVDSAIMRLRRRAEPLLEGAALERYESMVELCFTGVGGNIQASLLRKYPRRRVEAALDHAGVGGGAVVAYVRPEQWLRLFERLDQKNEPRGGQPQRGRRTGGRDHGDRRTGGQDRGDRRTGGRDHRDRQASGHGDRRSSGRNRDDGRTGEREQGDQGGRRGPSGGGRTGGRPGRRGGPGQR

ErmE K164M = molecular target: T5, ErmE K164M (Saccharopolyspora erythraea, UniProt P07287 1-381, K164M)
T5 sequence: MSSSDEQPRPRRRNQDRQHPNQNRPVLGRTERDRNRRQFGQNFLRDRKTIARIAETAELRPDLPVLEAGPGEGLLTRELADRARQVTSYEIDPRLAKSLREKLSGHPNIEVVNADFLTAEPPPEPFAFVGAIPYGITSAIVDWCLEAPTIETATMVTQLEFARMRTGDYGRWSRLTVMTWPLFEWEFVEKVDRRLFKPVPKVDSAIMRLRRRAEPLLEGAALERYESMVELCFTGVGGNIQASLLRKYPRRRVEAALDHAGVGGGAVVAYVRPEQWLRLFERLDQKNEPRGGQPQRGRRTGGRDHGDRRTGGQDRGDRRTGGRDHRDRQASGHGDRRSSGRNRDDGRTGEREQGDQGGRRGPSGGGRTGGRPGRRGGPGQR

ErmE K164S = molecular target: T6, ErmE K164S (Saccharopolyspora erythraea, UniProt P07287 1-381, K164S)
T6 sequence: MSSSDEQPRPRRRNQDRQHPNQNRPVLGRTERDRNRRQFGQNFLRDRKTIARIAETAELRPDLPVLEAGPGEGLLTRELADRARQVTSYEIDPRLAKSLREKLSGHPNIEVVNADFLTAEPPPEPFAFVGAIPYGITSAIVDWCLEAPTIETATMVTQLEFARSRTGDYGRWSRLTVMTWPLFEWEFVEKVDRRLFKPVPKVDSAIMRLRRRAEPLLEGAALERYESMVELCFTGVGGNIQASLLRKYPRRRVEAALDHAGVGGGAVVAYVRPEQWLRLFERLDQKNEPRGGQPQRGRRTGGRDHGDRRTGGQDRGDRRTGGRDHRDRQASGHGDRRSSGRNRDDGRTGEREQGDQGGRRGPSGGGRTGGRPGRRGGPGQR

What does the source list for GGCCUGCGGCAAGACGGAAAGACCAUGGUCCCUAUCUGCCGCAGGAUC (structured_RNA) [V48 Erm substrate (23S rRNA helix 73 mimic, 48 nt)]?
binding signal (ErmE E160W): ~4 fold Kd increase vs wt; binding result (ErmE E160A): binds; Kd (ErmE R163E): 3700 nM; Kd (ErmE R165A): 490 ± 50 nM; binding result (ErmE K164M): binds; binding result (ErmE K164S): binds
